Source: the DeepSol protein solubility set

experiment: soluble on expression in E. coli; label from the status in PepcDB or PDB records

Row | Sequence | soluble on expression in E. coli
1 | MAHHHHHHMVVSLIGPLDSPYVQRTLLVAAYAGIQLKLVPIQIGRENETEEYRLNCHPMQRVPVMKTDEGYLFESNAMIRYLARTEVMLVSVSAGIDSAGANNEKIPHPQYPIPYAMYGHSLLESTQVDSWLDFAITRIDFYTRQFFAYEHKTGPKPAADMKTLLCKSLDGLERRVAYLKEACRALVQQSGSLTSRSVMTDEELVWNEEDYMASRATRDSRLSSVYNVAGSIRQRHMEKERQEREKQLMLIKKTTDDALGKEEGADDPHHPSRRPSVSRDSMAISATPRASVLMSARSTMGSAAPGVQRHDLLFLVGGSLTAADLVMAMSLHGVLCCQELKPVLTSKYPNLFKYYKSVLMLPVAAEVRKAIRLSIIKE | soluble
2 | MGHHHHHHSHMKQVAVISGKGGTGKTTFSATIHALEGGVVADCDVDAPNLHILLKPQILKAEDFIASKKARIMPEKCSSCGLCYDLCRFGAVVAEDGYYVDEKKCEGCAFCFNVCPERAIEMENVKTGDLYVSKTEWGYFVHARLKPGEENTGRLVTEVKNRAKEIAEESNAEFLIVDSAPGVGCPVMASLTGVDAAIIVTEPTVSGLSDMLRILELCEHFRIRPFVVVNKFDLNVNIASEIESYCSENGVEFAGRVPFDKAIPEQIANLNFPFSGKAADKMVEIWKKLRE | not soluble
3 | MRLVYGLGRSGLGVLRFLRKRGLPARFYDDRPREEEVREALALGFQPDWNLEEAYEEVVAAPGVPLDHPHLKRLAARGAKVLGEAELAYRLSPTPIVGITGTAGKTSTTLFTAHLLRAHGLRAREGGNVDPPLVSVVDEAEVAVAELSSFQLERVHAFRPRVAVLLNLGVDHLDRHGTVEAYHAAKLNLLKNLTPEDALVYNRLDPKVRRAAEASPARLYPFTPGSTPRETNLRAVLEATRAYLDLLGRPLDPGAVAEALRTLPEAPHRFQAFARKGGVVFIDDSIATRTEAVRAALEAVPAPIAWILGGEDKGADLAPLLPLLGRVRVALALGRDGPRFARALEGRTEVVVIAEKDGRTAMRKAVEEALSRLEQGSVLLAPLAASFDQFRDYKDRAQAFREAVFALGGEPWTPSSS | soluble
4 | MQKTIYDVSFINGEVKTFTPLMLDNVMAEKELVARGGNIRENSIEFMAILTHKVCRRTYRENTPLDLDIFLESVLDIDTRVEEVTTFPEQNLDAHGPEPRHRT | not soluble
5 | MAHHHHHHMLSSAAPKRYKFDQRGNLTEVNFLACKSVVPPRTYVHSKNSLTCSTSVIPELHQTAHHCKGRSGANGTSGTNGKSGSTSKMAMSQENIFEAEAISTNAYAHGGGPSSLHSMNMVHSVSSVGSGGNDPSQYVPNQCGNMNMMGTGLSGHEMNNNAPLLFVDGAPYCADDAGQGIDPGVVAVSNALFAYNSAFQSIPIKTSPNVFRRRTKGEGNSEWCNAFVTRVDPCECGDPDEQFKPYEVTKYYDDGQVKTVFNFDQDSAPQEQLM | soluble
6 | MSRDPTYTINEHDLSFADGRFYVTFKADKSSETVRLNSSCLGNTIIKKLQVEDDNTMHDFVKPKVTTQQAFGLAQQVKELDLQLKDPKSDLWGKIKFNNKAMLVEYANKEMSSAIAQSAEQILLQVKSIDDERYSKFEQTLNGIKQTVKSESVESARTQLASMFDSRISGLDGKYSRLSQTIDSLSSRLDDGVGNYSTLSQKVSGIDLRVSNAANDVSRLSQTAQGLQSQITNANQNYSSLSQTVQGLQTTVRDNQSNATSRINQLSDLISTKVSKGDVETTIAQSYDKIAFAIRDKLPASKMSGSEIISAINLDRSGVKITGKNITLDGNSYISNAVIKDAHIANMDAGKINTGYLNANRIATEAITGEKIKMDYAFFNKLTANEGYFRTLFAKDIFATSVQSVTLSASKITGGVLAATNGASQWDLNNANMTFNRDATINFNSKNNALVRKDGTHTAFVHFSNATPKGYRGSALYASIGITSSGDGIDSASSGRFAGLRSFRYATGYNHTAAVDQTELYGDNVLIADDFNINRGFKFRPDKMEKVLDMNDLYAAVVALGRCWGHLANVGWNT | not soluble
7 | LGIAGLRYTFTFAVATAPSELLNITWYSAVSAAFNGALKFSITPLLPLGPITDERVEVSITALTPLSGVRSTSTALTPVRLCSAFAILFTDTKAEKLEFFEDTTERVDGDAVIPHTVNSETAALPTPFS | not soluble
8 | SLQCLRFPGLALPHTRAPSPLGPTRDPVATFLETCREPGSQPAGPASLRAEYLPPSVASIKVSAELLRAALKDGHSGVPLCCATLQWLLAENAAVDVVRARALSSIQGVAPDGANVHLIVREVAMTDLCPAGPIQAVEIQVESSSLADICRAHHAVVGRMQTMVTEQAAQGSSAPDLRVQYLRQIHANHETLLREVQTLRDRLCTEDEASSCATAQRLLQVYRQLRHPSLILL | soluble
9 | MGSDKIHHHHHHMAVECIKDKVTRYPERASYSDEDLVAMLDRNFTCTVSFIDGGIPYAIPMMLASEGKTIYLHGSMKSRIYGILKTGQLIAISLLEINGIVLAKEIKNNSINYVSALIFGRPYEIDDTEKKIEVFRLLTEKLVKGRRDNSIKPSYEDLNGVFVFAVKPETFSMKARTGPPHDTSTDDIWSGVLPIQHTISEAGENAPEYVKSLYGKRIFI | not soluble
10 | SAIITTTTVRFTDGTSPTFFSSASTKAYNLHFLYSNSTQRLTNPKFGIGGKLKVTVNPYSYTEEVRPEERKSLTDFLTEAGDFVNSDGGDGGPPRWFSPLECGARAPESPLLLYLPGIDGTGLGLIRQHKRLGEIFDIWCLHFPVKDRTPARDIGKLIEKTVRSEHYRFPNRPIYIVGESIGASLALDVAASNPDIDLVLILANPVTRFTNLMLQPVLALLEILPDGVPGLITENFGFYQEMFETMLNENDAAQMGRGLLGDFFATSSNLPTLIRIFPKDTLLWKLQLLKSASASANSQMDTVNAQTLILLSGRDQWLMNKEDIERLRGALPRCEVRELENNGQFLFLEDGVDLVSIIKRAYYYRRGKSLDYISDYILPTPFEFKEYEESQRLLTAVTSPVFLSTLKNGAVVRSLAGIPSEGPVLYVGNHMLLGMELHAIALHFLKERNILLRGLAHPLMFTKKTGSKLPDMQLYDLFRIIGAVPVSGMNFYKLLRSKAHVALYPGGVREALHRKGEEYKLFWPEHSEFVRIASKFGAKIIPFGVVGEDDLCEMVLDYDDQMKIPFLKNLIEEITQDSVNLRNDEEGELGKQDLHLPGIVPKIPGRFYAYFGKPIDTEGREKELNNKEKAHEVYLQVKSEVERCMNYLKIKRETDPYRNILPRSLYYLTHGFSSQIPTFDLRNH | not soluble
11 | MGSDKIHHHHHHACTGSSQKEKPACVNTPVEPFTGLPVFDLQEQYPEKEIILQDIADVRYVVLETGDSSLVGIRPILMTDSFLVTVNKKSDVIFFDKSGKYLHSFNHTSMSGEEYGDIVSGYCIDEKAREIFIYDGLQSRIQVYGYGGAYRRTLKLPQNRMFASSIFEYDENFLFGEDYRLVDSQIGKYPVNKTPYYKISKKDGKLTSIPITVKERIRDGLSYTVGDGAFGYVSLLMSPVARFGSDILIADYSLDTAYVYRDDHLIPLTVRRNHTSENNIPILATVDVMTGRYLLWYTIVKDIDVKNNRVSDPVSYLYDRFTNEYCRVDLVNRDVVSATNIPAFQMRLSANYHVVPENYAIQYYPAEELIELNGQGKLKGELKEIASKLNDEDNPVLLIAKFKE | not soluble
12 | MAHHHHHHMSDCHWAVIRKAVEAEWDASIIPALAAYIEVPNQSPDFDPQWATNGLLTKAFTILINWMKGQNLLGLSYELMEVEGRTPFLLVEIAGTEPTKNTLLMYGHMDKQPPLHPWGEGLDPHKAVVRDGKLYGRGGADDGYALFSAITSVSVLQRHGIPHGRVIVVIEACEESGSFDLDYYMERCKERIGNVDLMICLDSACLNYSQVWLTTSLRGVTGGVLNVQTLTESMHSGVAGGVVPDTFRIARELLDRVEDSKTGKVLFPEAYCEIPDYVVKSMESMKAVPFKEQFAMADGVSAEPGDNVELALRNFWKPSLTVTGSNLPEPQIAGNVIRTHTSLKLSLRVPPLVDAEKATQAMAKVLVANPPYGAKVWFEPEVPGDGCATPELKPWLVTALNEGSKMAYGNPLAFQGMGASIPFISMLLKAYPQAQFVVTGVLGPKSNAHGPNEFLHIEYAKGLTFAISRVVAEHFSHTPK | soluble
13 | MDRVRNLLEQIQGRLDELNKAERKVAEVILLNPQMATRLSIAALAQAAKVSEPTVNRFCRSFSVSGYPELKLQLAQSLASGAAYVSRAVEADDNPEAYTQKIFGSAIASLDSACQQLDPALVSKSVDMLIQARQIHFFGLGASAPVALDAQHKFFRFNLAVTAHADVLMQRMIASVAHTGELFVIISYTGRTRELVEVARIARANGASVLGLTAAGSPLAQASTVSLNIPLPEDTDIYMPMTSRIIQLTVLDVLATGMTLRRGVDFQPHLRKIKESLNDSRYPIEDQG | not soluble
14 | MSLDENLIEEIKLADDISKGYNAALNYLSYQLRTRKEVEDKLRSLDIHEDYISEIINKLIDLDLINDKNYAESYVRTMMNTSDKGPKVIKLNLSKKGIDDNIAEDALILYTDKLQVEKGVTLAEKLANRYSHDSYRNKQNKIKQSLLTKGFSYDIIDTIIQELDLIFDDDTEREILLEKANKLWSRYDNLDIKKRKFKIQQALFKQGFSFSNITSALDEIEDTNEGHHHHHH | soluble
15 | MGSDKIHHHHHHMQDYYSTLIGWMIPISRAMEAHQIDLTTALKECNISQDVMTDQESRIAAEKFYNLIEYCNKKLGRHDFSILIAEQFHPGMFHALGYAMMSSNTLQDALDRIAHYKRVVSNTCQLVTYESNNQLVFEMNIFTYEGTNRPVLSLATVETFLATIIRFARELVTLDFSPEKICFAYQKPAHDVTYLEEFFNCDIEFNSDKNAIIFNFEQAQEKLMCGNPLITHSHEKMLDEFMARIDKNDLSHVIKNKIFDLLPLGAPSQIVIAEDLGMSLRNLQRKLQEQGTSYKEILESTRKKLAMDYIVQQHLSLSEIGYLVGFSSVGNFNRAFKRWTNQTPGEYRQSKKT | not soluble
16 | MAHHHHHHMAVGKNKRTSKGKKGGKKKVTDVFTKKEWYDLKAPKMFLVRNFGKTLVTKTIGKKLATDSLKGRIYEVNLADLNNDEDQAHKKIKLSCDHIINRDCYTDFCGLSITRDKLCSLIRKGYTLIEGHTDVKTLDNYHLRMFCIAFTKKRQNQTKSTCYAQTSQIKKIRKKMVDIMTAEASKVLLKDLVKKFIPESIGKEIEKQCKKIYPLQNVLIRKVKILKRPKLDISKLMELHTDPKEESGKNVNALPESKEATNILTAELKH | not soluble
17 | MQEKQHIHIGEIIQRLSGRKLPQPLIRLLERLIHQDEINDILDRYGHLEGVDFMTALVGYFHVDIDWNGADRLPSDKRCLFVSNHPLGGLDGICLSHLIGSHYDSDVRYIVNDILFHLRPLRKIFVPVNTRGRQKRESIDRLQEALESDLPVITFPAGFCSRLIEGKVQDTPWKKSFVRQAYASKRDIVPLFFDGLNSKRFYRIERLRQLLGLKFNIGMALLPDEMFRSKGRHFRVFAGRPIPWQSLASAPRDTAEQALHIRSLVYDLSPSALKK | not soluble
18 | MSTQYETQGYTINNAGRRLVVDPITRIEGHMRCEVNINDQNVITNAVSCGTMFRGLEIILQGRDPRDAWAFVERICGVCTGVHALASVYAIEDAIGIKVPDNANIIRNIMLATLWCHDHLVHFYQLAGMDWIDVLDALKADPRKTSELAQSLSSWPKSSPGYFFDVQNRLKKFVEGGQLGIFRNGYWGHPQYKLPPEANLMGFAHYLEALDFQREIVKIHAVFGGKNPHPNWIVGGMPCAINIDESGAVGAVNMERLNLVQSIITRTADFINNVMIPDALAIGQFNKPWSEIGTGLSDKCVLSYGAFPDIANDFGEKSLLMPGGAVINGDFNNVLPVDLVDPQQVQEFVDHAWYRYPNDQVGRHPFDGITDPWYNPGDVKGSDTNIQQLNEQERYSWIKAPRWRGNAMEVGPLARTLIAYHKGDAATVESVDRMMSALNLPLSGIQSTLGRILCRAHEAQWAAGKLQYFFNKLMTNLKNGNLATASTEKWEPTTWPTECRGVGFTEAPRGALGHWAAIRDGKIDLYQCVVPTTWNASPRDPKGQIGAYEAALMNTKMAIPEQPLEILRTLHSFDPCLACSTHVLGDDGSELISVQVR | not soluble
